Our source for the Kd, binding result and kon values is patent publication US20250236644A1 (University of Washington, published 2025).

For assay [1], the target named is T1, TAMRA-labeled effector peptide cs221B (5(6)-TAMRA label coupled on resin after synthesis).
T1 construct: also called TAMRA-cs221B
T1 peptide: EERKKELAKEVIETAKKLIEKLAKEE
Description: fluorescence polarization titration; 1 nM TAMRA-peptide, unlabeled hinge varied. Here is the method:
(§1) All FP measurements were performed at 25° C. in 96-well plates (Corning 3686) using a Synergy Neo2™ plate reader and a 530/590 nm filter cube. The buffer for all FP measurements was 20 mM Tris-HCl, 100 mM NaCl, 0.05% v/v TWEEN20 at pH 8. Titrations were carried out in 96-well format, with 4 replicates per plate and 24 data points per titration (23 steps of two-fold serial dilution of hinges in the presence of TAMRA-labeled peptide at a constant concentration between 0.1 nM and 1 nM) with a final sample volume of 80 μl per well. Titration plates were incubated overnight at room temperature before measuring to ensure complete equilibration. The polarization signal S (as calculated by the Neo2™ software) was fitted to the equation
In general terms: In fluorescence polarisation assays a small probe gives low polarisation when free and higher when bound to something large.

Assay [2] deals with T2, TAMRA-labeled effector peptide cs269B (5(6)-TAMRA label coupled on resin after synthesis).
T2 construct: also called TAMRA-cs269B
T2 peptide: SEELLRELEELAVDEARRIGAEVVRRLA
As to the kind of experiment: fluorescence polarization titration; TAMRA-peptide constant, hinge varied.
From the text: (§2) We used our hinge design approach to generate hinge-peptide pairs that span a wide structural space (FIGS. 1D, 2A, 6, 7). We experimentally tested multiple rounds of designs, using both DHRs (21) and helical junctions (22) as input scaffolds, and improving individual steps of the design pipeline between iterations. Designs for which hinge and GFP-fused peptide were soluble and interacted as judged by size exclusion chromatography (SEC, FIGS. 7-8) were selected for further characterization by fluorescence polarization (FP). […] To circumvent the bottleneck of finding soluble peptide sequences, we also sought to design hinges that bind to a given target peptide. Starting from design cs201, we used a modified version of our design pipeline to redesign the hinge to bind peptides cs074B or cs221B, respectively, which have similar hydrophobic fingerprints as the original target peptide cs201B.
as §1

The next assay addresses T3, effector protein 3hb32.
T3 chain: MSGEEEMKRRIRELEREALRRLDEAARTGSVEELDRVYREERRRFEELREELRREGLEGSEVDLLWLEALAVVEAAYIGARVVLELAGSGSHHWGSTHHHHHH
Description: SEC binding experiment.

The target in assay [3] is T2, TAMRA-labeled effector peptide cs269B. Description: fluorescence polarization kinetics; 5 nM TAMRA-peptide, slope of kapp against hinge concentration.
In assay [4] the target is T4, TAMRA-labeled effector peptide js007B (5(6)-TAMRA label coupled on resin after synthesis).
T4 construct: also called TAMRA-js007B
T4 peptide: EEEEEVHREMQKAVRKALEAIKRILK
As to the kind of experiment: fluorescence polarization titration; TAMRA-peptide constant, hinge varied.
From the text: as §2, §1

Assay [5] concerns the target T4, TAMRA-labeled effector peptide js007B. Description: fluorescence polarization kinetics; slope of kapp against hinge concentration. The procedure:
as §1
(§3) For FP kinetics experiments a 2× peptide solution and 8 different 2× hinge solutions at different concentrations were prepared separately. 40 μl of each hinge solution were mixed with 40 μl peptide solution using a multichannel pipet and the measurement was started immediately after mixing. Polarization signals S at each concentration were fitted individually to the equation

Assay [6] has as its target T5, TAMRA-labeled effector peptide cs074B (5(6)-TAMRA label coupled on resin after synthesis).
T5 construct: Chemically synthesized; also called TAMRA-cs074B
T5 peptide: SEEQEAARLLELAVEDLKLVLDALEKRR
Description: fluorescence polarization titration; TAMRA-peptide constant, hinge varied.
From the text: as §2, §1

A further assay has as its target T6, effector protein 3hb12.
T6 construct: Three-helix bundle built around peptide cs074B
T6 chain: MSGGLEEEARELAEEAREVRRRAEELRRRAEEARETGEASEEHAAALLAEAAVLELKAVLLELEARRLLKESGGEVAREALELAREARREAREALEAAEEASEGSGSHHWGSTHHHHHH
Description: SEC binding experiment.

A further assay has as its target T7, effector protein 3hb04.
T7 construct: Three-helix bundle built around peptide cs074B
T7 chain: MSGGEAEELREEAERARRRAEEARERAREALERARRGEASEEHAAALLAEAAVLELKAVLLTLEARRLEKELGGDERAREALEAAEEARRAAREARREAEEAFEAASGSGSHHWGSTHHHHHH
Description: SEC binding experiment.

In the next assay the target is T8, effector protein 3hb08.
T8 construct: Three-helix bundle built around peptide cs074B
T8 chain: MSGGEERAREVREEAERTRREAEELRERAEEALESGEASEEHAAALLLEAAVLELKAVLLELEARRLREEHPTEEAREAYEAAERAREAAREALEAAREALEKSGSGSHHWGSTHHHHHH
As to the kind of experiment: SEC binding experiment.

The target in another assay is T9, effector protein 3hb11.
T9 construct: Three-helix bundle built around peptide cs074B
T9 chain: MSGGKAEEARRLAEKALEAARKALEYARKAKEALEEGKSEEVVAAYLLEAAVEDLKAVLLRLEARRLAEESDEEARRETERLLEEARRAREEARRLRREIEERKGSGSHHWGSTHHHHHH
As to the kind of experiment: SEC binding experiment.

The next assay has as its target T10, effector protein 3hb03.
T10 construct: Three-helix bundle built around peptide cs074B
T10 chain: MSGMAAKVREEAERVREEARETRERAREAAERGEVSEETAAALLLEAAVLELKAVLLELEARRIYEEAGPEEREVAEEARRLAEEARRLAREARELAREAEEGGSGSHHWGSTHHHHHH
As to the kind of experiment: SEC binding experiment.

The target of assay [7] is T5, TAMRA-labeled effector peptide cs074B. Description: fluorescence polarization kinetics; slope of kapp against hinge concentration. The procedure: as §1, §3
In assay [8] the target is T1, TAMRA-labeled effector peptide cs221B. Description: FP titration, 1 nM TAMRA-labeled peptide, reducing conditions. The source says:
To test the effect of the conformational pre-equilibrium on effector binding, we introduced disulfide “staples” that lock the hinge in one conformation. Using FP we analyzed peptide binding to stapled versions of hinge cs221 (FIG. 5A,B). […] Using the pre-equilibrium model described above, the observed association rates provide an estimate of the fraction of hinge that is in state Y in absence of the peptide: a 200-fold higher observed on rate for the locked Y variant indicates a 200-fold higher fraction of hinge in state Y compared to the original hinge. Assuming that the locked Y variant is 100% in state Y and assuming that the microscopic rate constant k₂ is identical for the locked Y hinge and state Y of the original hinge, this would indicate that the original hinge is 99.5% in state X and 0.5% in state Y at equilibrium.
All FP measurements were performed at 25° C. in 96-well plates (Corning 3686) using a Synergy Neo2™ plate reader and a 530/590 nm filter cube. The buffer for all FP measurements was 20 mM Tris-HCl, 100 mM NaCl, 0.05% v/v TWEEN20 at pH 8. […] The polarization signal S (as calculated by the Neo2™ software) was fitted to the equation

Assay [9] deals with T11, TAMRA-labeled effector peptide cs230B (5(6)-TAMRA label coupled on resin after synthesis).
T11 construct: also called TAMRA-cs230B
T11 peptide: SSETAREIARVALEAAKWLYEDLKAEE
Description: fluorescence polarization titration; TAMRA-peptide constant, hinge varied.
From the text: as §2, §1

The target of another assay is T12, effector protein 3hb24.
T12 chain: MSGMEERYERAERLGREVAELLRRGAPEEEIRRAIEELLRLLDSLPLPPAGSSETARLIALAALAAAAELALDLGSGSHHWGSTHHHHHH
Description: SEC binding experiment.

Assay [10] concerns the target T5, TAMRA-labeled effector peptide cs074B. As to the kind of experiment: fluorescence polarization titration; TAMRA-peptide constant, unlabeled hinge varied. The procedure: as §1

B1: FRET(extension) cs221F, unlabeled (designed binder)
chain: MSGEMVEEIEKLAEELAKKTKDCEVKKLAKKAAELAKKSTDEMKKEIVKDALELALRTKDEEVIRLALKAAVLAAESDDEEVKEVVKKALEAALKSKDEEVIRLLLLAAVLAAAAARSGSPEEKLEIAKKALELAMKSKDEEVIRLALLAAVLAARSDDEEVLKIVKKALELAMESKDVEVIRLALEAAVLAARSTDPEKKKCVYEALEKAMESKDEEEIKKELKAAVEKARSTEGSGSHHWGSTHHHHHH
notes: also called unlabeled extended hinge cs221F
Broadly, the Kd is the free concentration of one partner at which half of the binding sites on the other are occupied at equilibrium, for simple one-to-one binding. B1: in [1], the Kd was 23 nM.

B2: hinge cs269 (designed binder)
chain: MSGDEERVRELAERASREAERAVRSGSEESLEEALRNVEELIRKSDSEEARVRVAEAAVRAAAEAAARSGTVEAAAVAVIFTARVLQIVSSSEEAVVRVLAAAAAAAARVAVELGTEEALETALRFVELLVRLADSDEARQRVLRSASESARRSAEESGSERAREVAERFRERIERNQGSGSHHWGSTHHHHHH
What is called kon is the second-order rate constant of association. Turning to B2, the Kd in assay [2] was found to be 83 nM. Moreover, the binding result with effector protein 3hb32 is “binds”. The molecule also registered a kon in assay [3] of 2500 M⁻¹ s⁻¹.

B3: hinge js007 (designed binder)
chain: MSGSEEVNERVKQLAEKAKEATDKEEVIEIVKELAELAKQSTDPNLVAEVVRALTEVAKTSTDTELIQEIVKVLLELARRLTDPQLLLEVLKSIAELLKELAEKTGNETAKLAALVAQIAAEVVEMALRAEKTHPGSEIVKLAVELVQKVAEIVLIAAQLMLDKPNSDEVRKVLKEVEKVAREALKALREAKRHPDSQKARDEIKEASQKAEEVKERIERAQEGSGSHHWGSTHHHHHH
On to B3, for which the Kd in [4] came to 5.7 nM. The kon in [5] amounted to 78000 M⁻¹ s⁻¹.

B4: hinge cs074 (designed binder)
chain: MSGDEEVQEAVERAEELREEAEELIKKARKTGDPELLRKALEALKEAVRAVKEAIKRNPDNEEAVKTAVRLARELLKVAEELKERAEKTGDPRLLLLAAEAIAWAIEAVFLAAKASENTEGALEAARAAVKLAEVAKRIAKLLQRDAKKEGDPELLKLALRALELAVRAVELAIKENPDNEEAVETAKRLAEELRKVAELLEERAKETGDPELQELAKRAKEVADRARELAKKSNPNNGSGSHHWGSTHHHHHH
notes: De novo designed two-state hinge; the entry includes the C-terminal SNAC/His tag
Turning to B4, in [6], the Kd was 0.5 nM. In addition, the binding result with effector protein 3hb12, in the assay with effector protein 3hb04, with effector protein 3hb08, in the assay with effector protein 3hb11 and in the assay with effector protein 3hb03 was “binds” in each case. The association rate constant (kon) in assay [7] was 64000 M⁻¹ s⁻¹.

B5: variant cs221_lockedX, reducing conditions (DTT) (designed binder)
chain: MSGEMKEEIRRLAEELRERTKDEEVRELAREAARLAEESDDEEVKEVVKKALEAALKSKDEEVIRLLLLAAVCAAAAARSGSPEEKLEIAKKALELAMKSKDEEVIRLALLAAVLACRSDDEEVLKKVKEALEKAMESKDVEEIRERLREAVEVARAGSGSHHWGSTHHHHHH
notes: also called locked X with DTT
For B5, the binding result in assay [8] is “binds”.

B6: hinge cs230 (designed binder)
chain: MSGTKEEKERIERIEKEVRSPDPENILEAVRKALELFRENPSEEAKELLKRAIEAALRSEDERAILEALRAALEAYRQGAGDREGLLEAIRVAIRRAAESEDERAILEAVRAARILLEAERTEEAKELLRVAIERAKKSPDPEAQREAKRAEEELRKEDGSGSHHWGSTHHHHHH
As to B6, the Kd in [9] amounted to 2800 nM. In addition, the binding result with effector protein 3hb24 is listed as “binds”.

B7: FRET(extension) cs074F, unlabeled (designed binder)
chain: DEEVQEAVERAEELREEAEELIKKARKTGDPELLRKALEALECAVRAVEEAIKRNPDNDEAVETAVRLARELKKVAEELQERAKKTGDPELLKLALRALKVAVRAVKLAIKSNPDNEEAVKTAVRLARELLKVAEELKERAEKTGDPRLLLLAAEAIAWAIEAVFLAAKASENTEGALEAARAAVKLAEVAKRIAKLLQRDAKKEGDPELLKLALRALELAVRAVELAIKENPDNDEAVETAVRLARELKKVAEELQERAKKTGDPELLKLALRALEVAVRAVELAIKSNPDNEEAVETAKRLAEELRKVAELLEERACETGDPELQELAKRAKEVADRARELAKKSNPNNGSHHHHHH
notes: also called unlabeled extended hinge cs074F
As to B7, the kon in assay [7] came out at 100000 M⁻¹ s⁻¹. For the same molecule, in [10], the Kd was under 2 nM.
